Here are results for nine molecules from patent US20250136699A1 (JIANGSU BIOJETAY BIOTECHNOLOGY, published 2025).

Changes are numbered by the printed parent chain.

First the molecules themselves.
T1: Rattus norvegicus FcRn-alpha (rat, UniProt P13599 23-298)
T1 construct: Alpha chain alone; also called rFcRn; rat FcRn; not shown: His tag and Avi tag
T1 sequence: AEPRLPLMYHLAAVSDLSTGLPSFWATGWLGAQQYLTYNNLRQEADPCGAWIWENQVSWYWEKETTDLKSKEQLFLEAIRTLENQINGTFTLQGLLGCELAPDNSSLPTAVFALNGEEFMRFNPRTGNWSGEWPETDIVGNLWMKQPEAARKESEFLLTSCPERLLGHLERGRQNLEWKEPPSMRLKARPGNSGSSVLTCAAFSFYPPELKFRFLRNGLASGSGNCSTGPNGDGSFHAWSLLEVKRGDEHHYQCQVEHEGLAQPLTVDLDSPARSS

T2: musculus FcRn-alpha (mouse, UniProt Q61559 22-297, limits assumed)
T2 construct: Alpha chain alone; also called mFcRn; mouse FcRn; not shown: His tag and Avi tag
T2 sequence: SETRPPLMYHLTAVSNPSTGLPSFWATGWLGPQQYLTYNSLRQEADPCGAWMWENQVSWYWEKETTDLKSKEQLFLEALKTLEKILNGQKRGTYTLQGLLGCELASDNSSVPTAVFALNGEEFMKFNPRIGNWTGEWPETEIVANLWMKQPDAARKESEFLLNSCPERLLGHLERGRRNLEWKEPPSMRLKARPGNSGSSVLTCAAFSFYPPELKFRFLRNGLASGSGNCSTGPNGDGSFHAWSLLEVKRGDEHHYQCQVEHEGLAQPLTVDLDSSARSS

B1: ZLP17 (antibody, V domains shown)
VH: QIQLLQSGAELARPGASVKMSCKASGYTFTSYTMHWVKQRPGQGLEWIGYINPSSGYTNYNQKFKDKATLTADKSSSTAYMQLSSLTSEGSAVYYCARSGLRRVLDYWGQGTSVTVSS
VL: ENVLTQSPAILSASPGEKVTMTCSASSSVSYMYWYQQKPGSSPRLLIYDTSNLASGVPVRFSGSGSGTSYSLTISRMEAEDAATYYCQQWSSYPRTFGGGTKLEIK
notes: Full-length chimeric antibody with human IgG1 or IgG4 heavy constant and human kappa or lambda light constant domain
B2: ZLP44 (antibody, V domains shown)
VH: EVQLQQSGPELVKPGASVKVSCKASGYIFTSYNMYWMKQSHGKSLEWIGYIDPYNGGTRYNQKFKGKATLTVDKSSSTAYMHLNSLTSEDSAVYYCAVDGYNGAMDYWGQGTSVTVSS
VL: QIVLTQSPASLAVSLGQRATISCRASESVDSYGNSFMHWYQQKPGQPPKLLIYRASNLESGIPARFSGSGSRTDFTLTINPVEADDVATYYCQQSNEDPYTFGGGTKLEIK
notes: Full-length chimeric antibody; human kappa or lambda light constant domain
B3: ZLP64 (antibody, V domains shown)
VH: B2 VH with E1Q, V2I, Q5L, R59N
VL: B2 VL with Q1D, A12T, S31R, I62V, T89S, Y100L, G104A, I110L
notes: as for B2
B4: ZLP193 (antibody, V domains shown)
VH: EVQLQESGPDLVKPSQSLSLTCTVTGYSFTSGYSWHWIRQFPGNRLEWMGYIHDSGGTNYNPSLKSRISITRDTSKNQFFLQLNSVTTEDTATYYCAREENYRYFDVWGAGTTVTVSS
VL: DIQMMQSPAIMSASPGEKVTITCSASSSVSYMHWFQQKPGTSPKLWIYSTSNLASGVPARFSGSGSGTSYSLTISRMEAEDAATYYCQQRSSYPPTFGDGTRLEIK
notes: Full-length chimeric antibody: mouse variable domains with human IgG1 or IgG4 heavy constant domain and human kappa or lambda light constant domain; also called chimeric anti-FcRn antibody ZLP193
B5: ZLP22 (antibody, V domains shown)
VH: EVKLVESGAELARPGASVKMSCKASGYTFTSYAMHWVKQRPGQGLEWIGYINPSSGYTNYNQKFKDKATLTADKSSSTAYMQLSSLTSEDSAVYYCARKGLRYAVDYWGQGTSVTVSS
VL: DIVMTQSPSSLSVSAGEKVTMSCKSSQSLLNSGNQKNYLAWYQQKPGQPPKLLIYGASTRESGVPDRFTGSGSGTDYTLTISSVQAEDLALYYCQQHYSTPYTFGGGTKLEIK
notes: as for B2
B6: ZLP198 (antibody, V domains shown)
VH: EVKLMESGPDLVKPSQSLSLTCTVTGYSITSGYSWHWIRHFPGKKLEWMGYIHNSGSTNYNPSLKSRISISRETSKNQFFLQLNSVTTEDTATYYCAREGYGGYWYFDVWGAGTSVTVSS
VL: B1 VL with E1D, N2I, L11M, R44K, L45P, L46W, D49G, W90R, R95Y
notes: as for B1
B7: ZLP42 (antibody, V domains shown)
VH: QVQLQQPGAELVKPGASVKLSCTASGFNIKDTYMYWVKQRPEQGLEWIGRIDPANGITKFDPKFQDKATVTADTFSNIAYLHLSSLTSEDTAVYYCTTTAVMATEAMDRWGQGTSVTVSS
VL: B2 VL
notes: Full-length chimeric antibody
B8: ZLP57 (antibody, V domains shown)
VH: QVQLKESGPDLVKPSQSLSLTCTVTGYSITSGYSWHWIRQFPGNKLEWMTYIHSSGSTNYNPSLKSRISITRDTSKNQFFLQLKSVTTEDTATYYCAREVYGNYYWYFDVWGAGTTVTVSS
VL: DIVMTQSPAIMSASLGEEITLTCSASSSVSYMHWYQQKSGTSPKLLIYSTSNLASGVPARFSGSGSGTSYSLTISRMEAEDAATYYCQQRSSYPYTFGGGTKLEIK
notes: as for B1

T3 sequence (P61769 21-119 limits assumed): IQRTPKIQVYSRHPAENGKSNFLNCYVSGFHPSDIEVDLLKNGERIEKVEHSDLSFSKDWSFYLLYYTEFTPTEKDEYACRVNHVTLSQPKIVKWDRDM

In the first assay the target is human FcRn (human FCGRT and B2M) on stably transfected MDCK cells (human, UniProt P55899 24-365; P61769 21-119). In words: cell-based or functional assay.
human FcRn (human FCGRT and B2M) on stably transfected MDCK cells, sequence (P55899 24-365, chain 1 of 2): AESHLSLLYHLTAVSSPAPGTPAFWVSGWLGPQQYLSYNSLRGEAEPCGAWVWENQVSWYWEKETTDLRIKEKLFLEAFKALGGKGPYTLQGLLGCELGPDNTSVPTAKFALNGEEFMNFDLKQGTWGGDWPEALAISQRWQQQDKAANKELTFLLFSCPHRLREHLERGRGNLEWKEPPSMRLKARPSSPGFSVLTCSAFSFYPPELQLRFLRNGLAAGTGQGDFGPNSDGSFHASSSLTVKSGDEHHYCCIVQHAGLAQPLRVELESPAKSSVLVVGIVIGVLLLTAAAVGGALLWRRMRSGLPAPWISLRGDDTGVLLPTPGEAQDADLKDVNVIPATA
human FcRn (human FCGRT and B2M) on stably transfected MDCK cells, sequence (P61769 21-119, chain 2 of 2): as the sequence (P61769 21-119 limits assumed) above
B1: the “IgG Recycle IC50” value came out at 3.24 nM.
Regarding B2, the “IgG Recycle IC50” value worked out at 2.5 nM.
For the molecule B3, the “IgG Recycle IC50” value worked out at 10.7 nM.
On the same count and under the same terms, for B4 the value was 10.1 nM.
For B5, the “IgG Recycle IC50” value was found to be 5.01 nM.

A further assay has as its target T3, human B2M (human, UniProt P61769 21-119, limits assumed).
T3 construct: also called beta-2-microglobulin; not shown: His tag and Avi tag
Put plainly: ELISA: human B2M coated, antibody titrated, OD450. For orientation: ELISA stands for enzyme-linked immunosorbent assay.
For the molecule B1, the binding result is “no binding (tested: about 700 nM (Log[Ab] about 2.8))”.
Same read-out and setting: with B6 the entry was “no binding (tested: about 700 nM (Log[Ab] about 2.8))”.
Still for that read-out and setting: for B2 the value was “no binding (tested: about 700 nM (Log[Ab] about 2.8))”; for B7, “no binding (tested: about 700 nM (Log[Ab] about 2.8))”.
The same measure, in the same setting: with B3 the entry was “no binding (tested: about 700 nM (Log[Ab] about 2.8))”; with B8, “no binding (tested: about 700 nM (Log[Ab] about 2.8))”.
For the molecule B4, the binding result was “no binding (tested: about 700 nM (Log[Ab] about 2.8))”.
On the same count and under the same terms, with B5 the entry was “no binding (tested: about 700 nM (Log[Ab] about 2.8))”.

For another assay, the target named is T4, Human recombinant FCGRT & B2M Heterodimer Protein (hFcRn) (human, UniProt P55899 24-297; P61769 21-119).
T4 construct: Bought protein; also called human FcRn
T4 sequence (P55899 24-297 limits assumed, chain 1 of 2): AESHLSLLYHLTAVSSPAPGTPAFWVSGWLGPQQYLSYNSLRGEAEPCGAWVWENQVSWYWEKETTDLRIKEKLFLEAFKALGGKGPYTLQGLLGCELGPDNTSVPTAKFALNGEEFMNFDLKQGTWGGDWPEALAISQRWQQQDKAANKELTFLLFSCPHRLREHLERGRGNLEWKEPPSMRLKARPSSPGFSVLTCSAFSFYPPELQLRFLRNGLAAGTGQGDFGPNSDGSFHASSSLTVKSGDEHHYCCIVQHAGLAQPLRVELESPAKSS
T4 sequence (P61769 21-119 limits assumed, chain 2 of 2): as the sequence (P61769 21-119 limits assumed) above
Put plainly: ELISA, hFcRn coated at 1 ug/mL, IgG4 antibody titrated, anti-human IgG Fab-HRP.
Procedure: (§1) hFcRn binding of purified full-length chimeric antibodies: The hFcRn antigen binding ELISA was performed on the purified full-length chimeric antibodies (reformatted as IgG4). Briefly, plates were coated overnight at 4° C. with 1 μg/mL of hFcRn (cat #CT009-H08H) in PBS. After removing the coating solution, the wells were blocked by adding blocking buffer and incubated at room temperature for 1 hour. Plates were then washed 6 times with wash buffer. Serial dilutions of purified antibodies in PBS were added to individual wells followed by incubation at room temperature for 1 hour. Plates were washed 6 times with wash buffer. […] Plates were incubated at 37° C. for 1 hour, washed 6 times with wash buffer, and developed for 5-10 minutes with 50 L/well of TMB substrate, then quenched with 2M H₂SO₄. […] The ELISA results (OD450) were analyzed, and the binding curves were generated by Graphpad PRISM.
On to B2, for which the EC50 was found to be 0.673 nM.
Still for that read-out and setting: for B7 the value was 0.981 nM; for B3, 0.212 nM; for B4, 0.439 nM.
On the same count and under the same terms, for B5 the value was 2.39 nM.

A further assay has as its target T1, Rattus norvegicus FcRn-alpha. Put plainly: ELISA: rFcRn coated, antibody titrated, goat anti-human IgG Fab-HRP, OD450.
Procedure: as §1
Analysis of cross-reactivity to FcRn from different species: To examine whether the anti-FcRn antibodies bind to FcRn from different species, antigen binding ELISA assays were performed as described above except that cynoFcRn, mFcRn, or rFcRn was used in the assay instead of hFcRn.
For the molecule B2, the binding result was “no binding (tested: about 700 nM (Log[Ab] about 2.8))”.
On the same count and under the same terms, for B7 the value was “no binding (tested: about 700 nM (Log[Ab] about 2.8))”.
The same measure, in the same setting: with B3 the entry was “no binding (tested: about 700 nM (Log[Ab] about 2.8))”; with B4, “no binding (tested: about 700 nM (Log[Ab] about 2.8))”; with B5, “no binding (tested: about 700 nM (Log[Ab] about 2.8))”.

A further assay addresses T2, musculus FcRn-alpha. In words: ELISA: mFcRn coated, antibody titrated, goat anti-human IgG Fab-HRP, OD450.
As to “Human IgG (Jackson ImmunoResearch, cat #009-000-003) (antibody)”, the EC50 (read off the curve) worked out at 30 nM.
The same measure, in the same setting: for B1 the value was approximately 30 nM; for B6, approximately 10 nM.
The same measure, in the same setting: with B4 the figure was approximately 9 nM.
On the same count and under the same terms, with B5 the figure was approximately 20 nM.

The target in another assay is T5, human FCGRT (human, UniProt P55899 24-297, biotinylated (Avi tag) in the blocking assays).
T5 construct: Alpha chain alone, expressed in Expi293 cells with His and Avi tags; also called FCGRT of human FcRn protein; biotinylated human FCGRT; not shown: His tag and Avi tag
T5 sequence (P55899 24-297 limits assumed): as the sequence (P55899 24-297 limits assumed, chain 1 of 2) above
Put plainly: competition ELISA: human IgG coated, biotinylated human FCGRT plus antibody, SA-HRP.
For B2, the IC50 came to 12.3 nM.
Same read-out and setting: for B7 the value was 10.9 nM; for B3, 12.5 nM.
The same measure, in the same setting: with B8 the figure was 8.88 nM; with B4, 8.7 nM.

A further assay deals with T6, Cynomolgus monkey FcRn-alpha (cynomolgus monkey, UniProt Q8SPV9 24-297, limits assumed).
T6 construct: The printed entry looks like the full-length precursor (signal peptide, transmembrane and cytoplasmic parts); also called cynoFcRn; not shown: His tag and Avi tag
T6 sequence (Q8SPV9 24-297 limits assumed): as the sequence (P55899 24-297 limits assumed, chain 1 of 2) above, with N39D, E44Q, G99S, S189G, S190N, L217M, S269T counted along it
In words: ELISA: cynoFcRn coated, antibody titrated, goat anti-human IgG Fab-HRP, OD450.
In the case of B1, the “EC50 (read off the curve)” value was approximately 7 nM.
The same measure, in the same setting: with B6 the figure was approximately 6 nM; with B2, approximately 0.1 nM.
Still for that read-out and setting: with B3 the figure was approximately 0.08 nM; with B4, approximately 0.3 nM; with B5, approximately 0.8 nM.

The target of another assay is T5, human FCGRT. Put plainly: ELISA: human FCGRT coated, antibody titrated, goat anti-human IgG Fab-HRP, OD450.
Procedure: (§2) Measurement of the binding specificity of anti-FcRn antibodies to FCGRT and B2M by EILSA: Briefly, human FCGRT or B2M was coated on a 96-well plate at 4° C. overnight, after removing the coating solution, a blocking buffer containing 1% BSA was added into the plates followed by incubation at room temperature for 1 hour to block unspecific binding. Plates were then washed with wash buffer, and serial dilutions of anti-FcRn antibodies were added to the wells and incubated at room temperature for 1 hour. […] The wells were washed before adding 100 μL/well of TMB and incubated for 5-10 minutes at 37° C. 2M H₂SO₄ was used to stop the reaction. […] The ELISA results (OD450) were analyzed, and the binding curves were generated by Graphpad PRISM.
For B1, the “EC50 (read off the curve)” value was approximately 20 nM.
Same read-out and setting: with B6 the figure was approximately 20 nM; with B4, approximately 1 nM.
Turning to B5, the “EC50 (read off the curve)” value was approximately 7 nM.

In another assay the target is T5, human FCGRT. Described as above. This is another data set of the same source.
Procedure: as §2
In the case of B2, the “EC50 (read off the curve)” value is approximately 0.1 nM.
Still for that read-out and setting: with B7 the figure was approximately 0.2 nM.
Turning to B3, the “EC50 (read off the curve)” value was approximately 0.3 nM.

The target in the next assay is T5, human FCGRT. Put plainly: blocking ELISA: human IgG coated, biotinylated human FCGRT plus titrated antibody, SA-HRP, OD450; blocked ligand: human IgG.
Procedure: After removing the coating solution, the wells were blocked with a blocking buffer containing 1% BSA at room temperature for 1 hour. Plates were then washed with wash buffer. […] After incubation, 100 μL of SA-HRP (1:20,000) was added to each well and incubated for 1 hour at 37° C. The wells were washed before adding 100 μL/well of TMB and incubated for 5-10 minutes at 37° C. 2M H₂SO₄ was used to stop the reaction. […] The ELISA results (OD450) were analyzed, and the binding curves were generated by PRISM.
For B1, the “IC50 (read off the curve)” value was approximately 20 nM.
Still for that read-out and setting: for B5 the value was approximately 30 nM.

For orientation: EC50 means the midpoint of the concentration-response curve. Broadly, the EC50 (read off the curve) is the concentration that produces a half-maximal response. As a reminder, the IC50 is the concentration needed to halve the response being measured.
